From IntAct's records for PubMed 17185412

What was measured:
[1] = molecular target: syt1_mouse Syt1 (UniProt P46096)
[2] = molecular target: syt2_mouse Syt2 (UniProt P46097)

| Substance | effect of a mutation on the interaction [1] | effect of a mutation on the interaction [2] |
| --- | --- | --- |
| Botulinum neurotoxin type B (Clostridium botulinum) (from UniProt P10844) W1262L | decreasing interaction strength |  |
| Botulinum neurotoxin type B (Clostridium botulinum) (from UniProt P10844) Y1183R | decreasing interaction strength | decreasing interaction strength |
| Botulinum neurotoxin type B (Clostridium botulinum) (from UniProt P10844) K1192M | decreasing interaction strength |  |
| Botulinum neurotoxin type B (Clostridium botulinum) (from UniProt P10844) K1192E | decreasing interaction strength |  |
| Botulinum neurotoxin type B (Clostridium botulinum) (from UniProt P10844) V1118D | decreasing interaction strength | decreasing interaction strength |
